Test results as given in PMC11470957, “Principles of paralog-specific targeted protein degradation engaging the C-degron E3 KLHDC2” (Nature Communications, 2024).

Molecular target: KLHDC2 substrate binding domain (KLHDC2^SBD, 15-361) (UniProt Q9Y2U9)
Sequence (Q9Y2U9 15-361): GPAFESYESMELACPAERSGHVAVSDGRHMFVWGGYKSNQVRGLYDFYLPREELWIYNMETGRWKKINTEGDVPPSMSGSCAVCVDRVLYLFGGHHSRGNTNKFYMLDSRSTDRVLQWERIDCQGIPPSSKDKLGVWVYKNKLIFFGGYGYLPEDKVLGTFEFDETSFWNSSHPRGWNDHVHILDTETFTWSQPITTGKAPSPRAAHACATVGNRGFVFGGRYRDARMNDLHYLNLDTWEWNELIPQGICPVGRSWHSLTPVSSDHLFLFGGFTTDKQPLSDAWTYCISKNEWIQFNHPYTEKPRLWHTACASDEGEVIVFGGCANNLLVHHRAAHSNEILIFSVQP

improvement of the IC50 of inhibition of KLHDC2 di-Gly substrate ubiquitylation, SJ46421-BRD3^BD2 against SJ46421 alone (orders-of-magnitude): 2
Substance: BRD3^BD2 (second bromodomain of BRD3, residues 306-416) (from UniProt Q15059 306-416) (domain or fragment)
